Laboratory results published in article PMC11210195.
pKd: −log10 of the molar value.

Columns and labels:
[1] = molecular target: TRIM21 PRYSPRY domain (human) (UniProt P19474); test: SPR; Biacore T200, C1 chip, 25 °C, HBS-EP+; biotinylated PRYSPRY domain captured via monovalent streptavidin at low density (about 3 RU); (antibody) Fc constructs injected in five two-fold dilutions from 200 nM; global monophasic fit, affinity mode
[2] = molecular target: mAb1 YTE (human IgG1, M252Y, S254T, T256E) (human); test: SPR; Biacore T200, C1 chip, 25 °C, HBS-EP+; (antibody) Fc variants captured at low density (about 8-10 RU) via anti-human Fab-kappa nanobody or anti-PGLALA F(ab')2; TRIM21-CC-PS injected 180 s in two-fold dilutions from 100, 400, 500 or 1000 nM; global 1:1 Langmuir fit; avidity (apparent) mode for symmetrical, affinity mode for asymmetrical Fc variants
[3] = molecular target: mAb1 HH (human IgG1, T307H, N434H) (human); test: as above
[4] = molecular target: mAb1 WT-AAA (asymmetrical human IgG1, one Fc heavy chain H310A, H433A, Y436A) (human); test: as above
[5] = molecular target: anti-AAV2 capsid antibody A20 WT (bivalent, human IgG1 Fc WT) (human); test: as above
Sequence of anti-AAV2 capsid antibody A20 WT (bivalent, human IgG1 Fc WT) (human) (heavy, as listed by the source, chain 1 of 2): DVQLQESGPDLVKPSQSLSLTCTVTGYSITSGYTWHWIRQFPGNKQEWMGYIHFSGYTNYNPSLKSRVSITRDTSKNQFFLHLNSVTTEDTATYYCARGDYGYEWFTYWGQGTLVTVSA
Sequence of anti-AAV2 capsid antibody A20 WT (bivalent, human IgG1 Fc WT) (human) (light, as listed by the source, chain 2 of 2): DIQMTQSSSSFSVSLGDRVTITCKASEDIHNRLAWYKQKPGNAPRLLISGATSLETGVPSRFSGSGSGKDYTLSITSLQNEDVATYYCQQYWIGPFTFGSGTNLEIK

[6] = molecular target: mAb1 HH-AAA (asymmetrical human IgG1, one Fc heavy chain HH, the other AAA) (human); test: as above
[7] = molecular target: mAb1 YTE-AAA (asymmetrical human IgG1, one Fc heavy chain YTE, the other AAA) (human); test: as above
[8] = molecular target: anti-AAV2 capsid antibody A20 WT (human); test: SPR; A20 antibody variants and TRIM21-CC-PS; orientation not told in the text (Supplementary Figure S8); apparent (avidity) constant
Sequence of anti-AAV2 capsid antibody A20 WT (human) (heavy, as listed by the source, chain 1 of 2): as the sequence (heavy, as listed by the source, chain 1 of 2) above
Sequence of anti-AAV2 capsid antibody A20 WT (human) (light, as listed by the source, chain 2 of 2): as the sequence (light, as listed by the source, chain 2 of 2) above

[9] = molecular target: mAb1 WT-AAA (human); test: mass photometry; TRIM21-CC-PS incubated 10 min with antibody Fc variants at different molar ratios, low nM; PBS pH 7.4, room temperature
[10] = molecular target: mAb1 YTE (human); test: SPR; antibody Fc variants captured via anti-human Fab-kappa ligand at low density (approx. 8-10 RU); TRIM21-CC-PS injected, two-fold series from 100 nM, 180 s association, 600 s dissociation; 25°C, HBS-EP+; 1:1 fit; apparent (avidity) constants
[11] = molecular target: mAb1 HH (human); test: as above

Sequence of TRIM21-coiled-coil-PRYSPRY (TRIM21-CC-PS) (P19474 128-475): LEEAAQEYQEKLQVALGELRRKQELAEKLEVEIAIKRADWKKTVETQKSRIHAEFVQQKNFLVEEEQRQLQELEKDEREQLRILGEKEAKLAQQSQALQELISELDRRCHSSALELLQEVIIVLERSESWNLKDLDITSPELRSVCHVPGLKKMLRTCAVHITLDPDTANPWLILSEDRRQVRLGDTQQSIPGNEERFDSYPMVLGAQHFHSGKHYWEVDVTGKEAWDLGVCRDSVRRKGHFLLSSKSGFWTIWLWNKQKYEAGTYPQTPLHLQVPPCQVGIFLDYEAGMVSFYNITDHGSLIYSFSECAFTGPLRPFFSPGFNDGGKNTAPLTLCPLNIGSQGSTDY
Sequence of TRIM21-coiled-coil-PRYSPRY (P19474 128-475): as above
Sequence of TRIM21 PRYSPRY domain (human) (P19474 277-475): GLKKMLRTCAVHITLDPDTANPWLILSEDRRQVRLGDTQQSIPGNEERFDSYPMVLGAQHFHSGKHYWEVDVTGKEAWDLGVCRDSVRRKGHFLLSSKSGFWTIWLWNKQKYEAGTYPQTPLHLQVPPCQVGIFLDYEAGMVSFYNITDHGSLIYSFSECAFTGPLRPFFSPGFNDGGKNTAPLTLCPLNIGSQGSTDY

Substance “Fc WT (Fc-only variant, human IgG1 core hinge-CH2-CH3, wild type) (domain or fragment)” has a pKd [1] of 7.59, a koff [1] of 0.132 s⁻¹ and a kon [1] of 5.09e+06 M⁻¹ s⁻¹.

“TRIM21-coiled-coil-PRYSPRY (from UniProt P19474-1 128-475) (domain or fragment)” was tested, and the pKd [2] was 8.83, the koff [2] was 0.00127 s⁻¹ and the kon [2] was 865000 M⁻¹ s⁻¹. The pKd [3] was 8.86, the koff [3] was 0.00651 s⁻¹ and the kon [3] was 4.74e+06 M⁻¹ s⁻¹. The pKd [4] was 6.93, the koff [4] was 0.129 s⁻¹ and the kon [4] was 1.1e+06 M⁻¹ s⁻¹. The koff [5] was 0.000983 s⁻¹, the kon [5] was 1.44e+06 M⁻¹ s⁻¹ and the pKd [6] was 6.32. It also gave a koff [6] of 0.437 s⁻¹, a kon [6] of 921000 M⁻¹ s⁻¹ and a pKd [7] of 6.66. For the same substance, the koff [7] was 0.167 s⁻¹ and the kon [7] was 758000 M⁻¹ s⁻¹.

In the case of “TRIM21-coiled-coil-PRYSPRY (TRIM21-CC-PS) (from UniProt P19474-1 128-475) (domain or fragment)”, the pKd [8] was 9.15, the percent complexed [9] was 2% and the avidity enhancement (K (D,AFFINITY)/K (D,AVIDITY)) [10] was 50 fold. For the same substance, the fold weaker against the WT avidity [10] was 2 fold, the avidity enhancement (K (D,AFFINITY)/K (D,AVIDITY)) [11] was 72 fold and the fold faster kinetic rates against YTE [11] was 5 fold. The fold weaker against the WT avidity [11] was 2 fold.

Ustekinumab (antibody) was tested, and the pKd [1] was 7.64, the koff [1] was 0.0884 s⁻¹ and the kon [1] was 3.89e+06 M⁻¹ s⁻¹.

Briakinumab (antibody) was tested, and the pKd [1] was 7.78, the koff [1] was 0.102 s⁻¹ and the kon [1] was 6.14e+06 M⁻¹ s⁻¹.
